{
  "source": "patent US6518404B1",
  "about": "“Human endothelin-bombesin receptor antibodies” (priority 1994, dated 2003)",
  "key": {"[1]": {"molecular_target": "T1, ETBR (endothelin-bombesin receptor) expressed in Xenopus oocytes (Homo sapiens, UniProt O15354)", "T1 construct": "expressed in transfected cells; host or cells: Xenopus oocytes microinjected with in vitro transcribed RNA", "T1 sequence (O15354 27-613)": "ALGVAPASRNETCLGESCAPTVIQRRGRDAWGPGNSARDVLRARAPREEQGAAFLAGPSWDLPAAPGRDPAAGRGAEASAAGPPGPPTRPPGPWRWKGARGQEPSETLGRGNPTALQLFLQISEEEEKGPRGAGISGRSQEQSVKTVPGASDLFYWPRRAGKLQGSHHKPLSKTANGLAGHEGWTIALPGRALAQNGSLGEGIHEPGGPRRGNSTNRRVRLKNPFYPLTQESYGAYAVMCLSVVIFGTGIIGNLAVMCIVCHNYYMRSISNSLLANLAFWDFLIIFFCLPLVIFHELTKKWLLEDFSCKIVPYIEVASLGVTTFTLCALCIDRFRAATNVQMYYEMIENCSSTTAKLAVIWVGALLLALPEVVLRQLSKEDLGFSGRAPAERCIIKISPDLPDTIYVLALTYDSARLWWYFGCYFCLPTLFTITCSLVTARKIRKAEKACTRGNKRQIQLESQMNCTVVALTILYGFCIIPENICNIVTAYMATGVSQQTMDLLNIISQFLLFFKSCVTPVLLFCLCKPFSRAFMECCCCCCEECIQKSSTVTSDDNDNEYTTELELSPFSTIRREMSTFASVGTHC", "test": "Xenopus oocyte assay to identify ligand (voltage-clamp, calcium activated chloride channel activity)", "type": "cell-based", "conditions": "for Cl- current response upon addition of ligand: 10 nM ligand, oocytes injected with RNA from ATCC #75823, clamped at -60 mV; for mean peak ± S.E. peak current response (chloride current): oocytes injected with pHHPEC49 derived RNA transcripts, n=75", "protocol": "Arrow indicates ET1 addition. […] The mean peak ± S.E. peak current response to ET1 is 150±50 (n=75), ET2 156±55 (n=75) and Bombesin 148±47 (n=75).\n(§1) RNA was synthesized in vitro from linearized DNA, ATCC #75823, using an RNA transcription kit. This RNA was microinjected into Xenopus oocytes (10 ng of RNA/occytes). The oocytes were manually defolliculated prior to microinjection to remove any endogenous receptors that might be present in the follicular membranes. The injected oocytes were maintained in modified Barth's medium at 18° C. for 48 hours to allow for receptor protein expression. Electrophysiology was performed using the voltage-clamp technique. Oocytes were clamped at −60 mV and the calcium activated chloride channel activity was recorded in Barth's medium at room temperature. Data were analyzed using Axotape software.\n(§2) The ET1 and ET3 mediated response was blocked by the ET receptor peptide antagonist BQ123. […] Since it responds to both ET and Bombesin it represents a novel endothelin-bombesin receptor."}, "[2]": {"tested_on": "uninjected oocytes", "test": "Uninjected Xenopus oocytes (control for endogenous response)", "type": "cell-based", "conditions": "uninjected oocytes (data not shown)", "protocol": "as §1, §2"}},
  "note": "Square brackets hold non-standard residues; d marks the D form. Peptide text beside a SMILES is read from it.",
  "data": [
    {"compound": "CC(C)C[C@@H]1NC(=O)[C@@H](C(C)C)NC(=O)[C@@H]2CCCN2C(=O)[C@@H](CC(=O)O)NC(=O)[C@@H](Cc2c[nH]c3ccccc23)NC1=O", "note": "[BQ123] (cyclo(L[dW][dD]P[dV]))", "values": [
      {"measurement": "effect on ET1 and ET3 mediated response", "setting": "[1]; oocytes injected with RNA from ATCC #75823", "value": "blocked"}
    ]},
    {"compound": "AII: related peptide ligand (DRVYIHPF)", "values": [
      {"measurement": "Cl- current response upon addition of ligand", "setting": "[1]", "value": "did not illicit any response"}
    ]},
    {"compound": "Neuropeptide Y", "values": [
      {"measurement": "Cl- current response upon addition of ligand", "setting": "[1]", "value": "did not illicit any response"}
    ]},
    {"compound": "endothelin-1 [ET1]", "values": [
      {"measurement": "change in membrane potential upon addition of ligand", "setting": "[2]", "value": "did not elicit any change in membrane potential"},
      {"measurement": "Cl- current response upon addition of ligand", "setting": "[1]", "value": "fairly strong Cl^− currents"},
      {"measurement": "mean peak ± S.E. peak current response (chloride current)", "setting": "[1]", "value": "150±50", "unit": "nanoamps"}
    ]},
    {"compound": "endothelin-2 (CSCSSWLDKECVYFCHLDIIW) [ET2, member of the endothelin peptide family]", "values": [
      {"measurement": "mean peak ± S.E. peak current response (chloride current)", "setting": "[1]", "value": "156±55", "unit": "nanoamps"}
    ]},
    {"compound": "endothelin-3 [ET3]", "values": [
      {"measurement": "change in membrane potential upon addition of ligand", "setting": "[2]", "value": "did not elicit any change in membrane potential"},
      {"measurement": "Cl- current response upon addition of ligand", "setting": "[1]", "value": "fairly strong Cl^− currents"}
    ]}
  ]
}
